In data set [1] the target is T1, GhBZR1-His (Gossypium hirsutum, UniProt A0A1B0QVW2 1-313).
T1 sequence: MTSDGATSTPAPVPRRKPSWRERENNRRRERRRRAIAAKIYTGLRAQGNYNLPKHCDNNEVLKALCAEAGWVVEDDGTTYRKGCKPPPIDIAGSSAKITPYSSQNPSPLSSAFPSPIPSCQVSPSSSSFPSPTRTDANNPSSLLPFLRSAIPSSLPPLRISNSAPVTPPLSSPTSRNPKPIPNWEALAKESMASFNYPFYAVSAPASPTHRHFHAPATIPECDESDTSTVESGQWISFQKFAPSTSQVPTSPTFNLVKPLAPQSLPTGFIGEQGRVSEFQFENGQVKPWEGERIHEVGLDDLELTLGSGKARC
Nature of the data set: EMSA; LightShift Chemiluminescent EMSA Kit (Thermo); buffer, salt, pH and temperature not stated. The conditions noted are these: protein: recombinant; tags: C-terminal His (pET30a); chain copies: 2; label: biotin on both strands (text: 3'-end and 5'-end); blunt. (In general: A gel shift assay detects complexes by their altered migration in electrophoresis.)

Data set [2] deals with T1, GhBZR1-His. Nature of the data set: competition; unlabelled competitor against biotinylated GhBEE3-Like Probe; significantly reduced the shift; LightShift Chemiluminescent EMSA Kit (Thermo); buffer, salt, pH and temperature not stated. The following applies: protein: recombinant; tags: C-terminal His (pET30a); chain copies: 2; label: none; blunt.

B1: GhBEE3-Like Probe (dsDNA)
DNA 1: ACAATTACACGTGACATGTC
DNA 2: GACATGTCACGTGTAATTGT
B1: the binding result in data set [1] was “binds”.

B2: Mutant Probe (dsDNA)
DNA 1: ACAATTAAGCGGAACATGTC
DNA 2: GACATGTTCCGCTTAATTGT
B2: in data set [1], the binding result was “no binding”.

B3: Competitor Probe (dsDNA)
DNA 1: ACAATTACACGTGACATGTC
DNA 2: GACATGTCACGTGTAATTGT
With B3, the binding result in data set [2] was “binds”.
